Assay results taken from PMC3229523, “Identification of Lactoferricin B Intracellular Targets Using an Escherichia coli Proteome Chip” (PLoS ONE, 2011).
Ends that are not written are not given here. * marks the point of attachment. Biotin = O=C1N[C@H]2[C@H](CS[C@H]2CCCCC(=O)*)N1

Tests used:
Test in all cases: peptide or protein array; E. coli proteome chip: purified His-tagged proteins printed in duplicate on Fullmoon slides, blocked with 1% BSA; 10 nM N-terminal biotinylated LfcinB with 1% BSA, room temperature, 1 h; detected with DyLight 649-labeled streptavidin, ratio to DyLight 549-labeled anti-His antibody; ProCAT normalisation, local cut-off; triplicate chips
Conditions in all cases: both partners purified
YgiG = molecular target: T1, YgiG (E. coli K-12, UniProt P0AC16 1-122)
T1 construct: YgiG, E. coli K-12
T1 sequence (looked up): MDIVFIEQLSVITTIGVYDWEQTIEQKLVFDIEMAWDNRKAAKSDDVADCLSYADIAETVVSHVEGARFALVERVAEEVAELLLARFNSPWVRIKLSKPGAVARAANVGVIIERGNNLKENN

YgfJ = molecular target: T2, YgfJ (E. coli K-12, UniProt Q46810 1-192)
T2 construct: YgfJ, E. coli K-12
T2 sequence (looked up): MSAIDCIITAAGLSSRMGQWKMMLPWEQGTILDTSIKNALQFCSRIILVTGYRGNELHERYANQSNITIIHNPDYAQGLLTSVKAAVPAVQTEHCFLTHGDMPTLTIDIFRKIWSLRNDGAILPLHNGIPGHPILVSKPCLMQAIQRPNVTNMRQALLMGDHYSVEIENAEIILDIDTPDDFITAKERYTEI

AdiY = molecular target: T3, AdiY (E. coli K-12, UniProt P33234 1-253)
T3 construct: AdiY, E. coli K-12
T3 sequence (looked up): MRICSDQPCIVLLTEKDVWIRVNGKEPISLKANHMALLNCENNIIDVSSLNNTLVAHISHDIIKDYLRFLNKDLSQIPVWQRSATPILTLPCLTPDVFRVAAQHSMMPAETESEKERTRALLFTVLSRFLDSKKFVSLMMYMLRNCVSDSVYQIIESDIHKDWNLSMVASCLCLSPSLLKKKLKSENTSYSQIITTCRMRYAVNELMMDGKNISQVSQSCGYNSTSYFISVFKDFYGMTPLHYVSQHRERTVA

Sun = molecular target: T4, Sun (E. coli K-12, UniProt P36929 1-429)
T4 construct: Sun, E. coli K-12
T4 sequence (looked up): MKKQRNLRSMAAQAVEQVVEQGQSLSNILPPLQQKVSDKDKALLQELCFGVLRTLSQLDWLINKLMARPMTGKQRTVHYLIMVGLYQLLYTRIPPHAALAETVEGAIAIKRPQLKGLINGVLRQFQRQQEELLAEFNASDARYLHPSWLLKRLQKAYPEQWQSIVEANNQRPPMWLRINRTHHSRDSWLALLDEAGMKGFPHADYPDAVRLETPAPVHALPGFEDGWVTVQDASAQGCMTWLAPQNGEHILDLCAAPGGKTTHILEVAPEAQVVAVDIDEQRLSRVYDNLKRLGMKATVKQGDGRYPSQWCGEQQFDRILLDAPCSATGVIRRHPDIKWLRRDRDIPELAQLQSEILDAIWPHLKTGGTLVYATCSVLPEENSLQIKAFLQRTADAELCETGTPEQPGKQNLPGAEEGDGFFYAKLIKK

YjdK = molecular target: T5, YjdK (E. coli K-12, UniProt P0AF61 1-98)
T5 construct: YjdK, E. coli K-12
T5 sequence (looked up): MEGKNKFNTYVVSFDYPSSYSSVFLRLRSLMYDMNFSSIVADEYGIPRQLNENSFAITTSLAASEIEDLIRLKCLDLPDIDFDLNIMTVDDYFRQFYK

GloA = molecular target: T6, GloA (E. coli K-12, UniProt P0AC81 1-135)
T6 construct: GloA, E. coli K-12
T6 sequence (looked up): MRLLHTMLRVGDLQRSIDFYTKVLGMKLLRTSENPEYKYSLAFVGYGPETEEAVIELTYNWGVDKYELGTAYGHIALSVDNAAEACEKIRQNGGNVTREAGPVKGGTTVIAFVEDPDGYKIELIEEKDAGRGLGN

HolB = molecular target: T7, HolB (E. coli K-12, UniProt P28631 1-334)
T7 construct: HolB, E. coli K-12
T7 sequence (P28631 whole entry): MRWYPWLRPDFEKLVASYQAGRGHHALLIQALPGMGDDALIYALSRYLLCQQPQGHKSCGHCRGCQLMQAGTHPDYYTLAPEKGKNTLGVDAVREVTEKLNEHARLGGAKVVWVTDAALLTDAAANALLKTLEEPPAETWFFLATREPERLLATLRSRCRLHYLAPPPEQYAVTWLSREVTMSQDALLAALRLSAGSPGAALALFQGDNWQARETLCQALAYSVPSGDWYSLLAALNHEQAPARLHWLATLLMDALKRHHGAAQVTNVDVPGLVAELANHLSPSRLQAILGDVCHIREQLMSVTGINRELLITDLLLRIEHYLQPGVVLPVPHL

Measured: binding result

B1: N-terminal biotinylated Lactoferricin B (peptide, UniProt P24627 36-60, looked up)
peptide: Biotin-FKCRRWQWRMKKLGAPSITCVRRAF
modifications: ends and bridges not checked
notes: lactoferricin B (LfcinB), cationic antimicrobial peptide of 25 amino acids; also called biotinylated LfcinB; biotin-labeled LfcinB; source: bought: Kelowna Inc
binds: YgiG | YgfJ | AdiY | Sun | YjdK | GloA | HolB
